Reference: PMC10292028
Positions count from the first letter of the chain named. Names and notes keep the numbering of the source.

B1: PriB (Streptomyces sp. RM-5-8) (protein)
chain: MGGPMSGFHSGEALLGDLATGQLTRLCEVAGLTEADTAAYTGVLIESLGTSAGRPLSLPPPSRTFLSDDHTPVEFSLAFLPGRAPHLRVLVEPGCSSGDDLAENGRAGLRAVHTMADRWGFSTEQLDRLEDLFFPSSPEGPLALWCALELRSGGVPGVKVYLNPAANGADRAAETVREALARLGHLQAFDALPRADGFPFLALDLGDWDAPRVKIYLKHLGMSAADAGSLPRMSPAPSREQLEEFFRTAGDLPAPGDPGPTEDTGRLAGRPALTCHSFTETATGRPSGYTLHVPVRDYVRHDGEARDRAVAVLREHDMDSAALDRALAAVSPRPLSDGVGLIAYLALVHQRGRPTRVTVYVSSEAYEVRPPRETVPTRDRARARL
B2: 6DMATSmo (Micromonospora olivasterospora) (protein)
chain: MAGLSVSDHLDGQLARLCEVAGADPVEPRNLLAGLLGPVGPRPLYEPPAWPSGVSDDHTPVEFSIAFNEAEPPTLRILGETLGSPPGPLANLSATRGFLDAQARRAGLSTSRLDSVRDLFATDDPQGDFAMWCSLVFRSSRRPEFKVYLNPEVKGVERSPALVSEALHRLGLGASYRALLDHGVRPGELGRGDRLTFFAVDLHDGPQARVKLYLTHHEAEVWDVTRAASVVDGVDVAEIEEFCVVAGGGTRRFDGRPLVGSYTFTEGADRPVGYSIYVPIRSYVTDDQEARDRVAALLVRYGFDTDGLDRAIAAVTPRPLRDGVGLIAHVSLRLGAPRPGVTVYLSAEAYRVSPPRPRRMPAGRDVSPAPVGRTRP
B3: 6DMATSmo (Micromonospora olivasterospora; Y277H) (protein)
chain: B2 chain with Y277H
B4: 6DMATSmo (Micromonospora olivasterospora; H329Y/Y277H) (protein)
chain: B2 chain with Y277H, H329Y
B5: 6DMATSmo (Micromonospora olivasterospora; H329Y) (protein)
chain: B2 chain with H329Y

Legend:
[1] = substrate: N[C@@H](Cc1c[nH]c2ccccc12)C(=O)O; assay: HPLC end-point assay, Michaelis-Menten fit; assay type: biochemical, Streptomyces sp. RM-5-8; details: 2 mM DMAPP, 50 mM Tris pH 8.0, 37 °C
[2] = substrate: N[C@@H](Cc1c[nH]c2ccccc12)C(=O)O; assay: HPLC end-point assay, Michaelis-Menten fit; assay type: biochemical, Micromonospora olivasterospora; details: 2 mM DMAPP, 50 mM Tris pH 8.0, 37 °C

Protein	Km [1]	kcat [1] [s⁻¹]	kcat/Km [1] [M⁻¹ s⁻¹]	Km [2]	kcat [2] [s⁻¹]	kcat/Km [2] [M⁻¹ s⁻¹]
B1	(42.9 ± 6.9) × 10^−2 mM	0.33 ± 0.0133	770	–	–	–
B2	–	–	–	(33.1 ± 2.5) × 10^−2 mM	0.0917 ± 0.00167	277
B3	–	–	–	(38.2 ± 0.1) × 10^−2 mM	0.00108 ± 3.33e-05	2.83
B4	–	–	–	1000 ± 100 µM	0.00182 ± 3.33e-05	1.82
B5	–	–	–	(26.7 ± 1.6) × 10^−2 mM	0.000783 ± 1.17e-05	2.93
